# Experimental data reported in patent publication US20050153923A1, “Targeted drug delivery using EphA2 or EphA4 binding moieties” (priority 2003, published 2005).
# Entries after “also recorded” stand apart in the source; their conditions may differ.
# B1: EA2: EphA2 agonistic monoclonal antibody; hybridoma strain EA2.31, ATCC PTA-4380 (antibody, V domains shown)
# VH: DVKLVESGGGLVKPGGSLKLSCAASGFTFSSYTMSWVRQTPEKRLEWVATISSGGTYTYYPDSVKGRFTISRDNAKNTLYLQMSSLKSEDTAMYYCTREAIFTYWGQGTLVTVSA
# VL: DIKMTQSPSSMYASLGERVTITCKASQDINNYLSWFQQKPGKSPKTLIYRANRLVDGVPSRFSGSGSGQDYSLTISSLEYEDMGIYYCLKYDEFPYTFGGGTKLEIK
# What was measured:
# [1] = tested on: MDA-MB-231 breast cancer cells; assay: Tumor growth, MDA-MB-231 cells implanted orthotopically into athymic mice; assay type: in vivo; settings: 6 mg/kg i.p. twice a week for 3 weeks; FIG. 7A
# Protocol: Total tumor volume was determined after sacrifice.
# [2] = tested on: MCF-7^EphA2 cells; assay: Soft agar colonization of MCF-7^EphA2 cells; assay type: cell-based; settings: TAM 1 μM, EA2 10 μg/ml
# Protocol: (B) MCF-7 (circles) or MCF-7^EphA2 cells (squares) were implanted into the mammary fatpad (n=15 mice per group) in the presence of supplemental estrogen.
# MCF-7^EPhA2 cells were incubated in the presence of 3 μg/ml of EA2 for the time indicated prior to sample extraction and Western blot analyses with an EphA2-specific antibody (D7). (B) The membrane was stripped and re-probed with a β-catenin-specific antibody as a loading control.
# Growth assays were conducted as follows. MCF-7^neo (control cells) or MCF7^EphA2 cells were seeded in 96-well plates. […] Colony formation in soft agar was performed as previously described (Zelinski et al., 2001, Cancer Res. 61: 2301-6) and scored microscopically, defining clusters of at least three cells as a positive. The data represent the average of ten separate high-power microscopic fields from each sample and representative of at least three separate experiments. Error bars represent the standard error of the mean of at least three different experiments as determined using Microsoft Excel software.
# (§1) Growth MCF-7^EphA2 cells which had decreased EphA2 expression levels was assayed in soft agar.
# [3] = target: T1, EphA2-Fc (Homo sapiens, UniProt P29317); assay: Competitive ELISA: inhibition of labeled EA2 binding to EphA2-Fc; settings: unlabeled antibody, increasing concentrations; FIG. 1
# T1 construct: consisted of the extracellular domain of human EphA2 linked to human immunoglobulin
# Protocol: The ability of labeled EA2 monoclonal antibody to bind EphA2-Fc was assayed by competitive ELISA in presence of either unlabeled monoclonal antibodies EA2 or Eph099B-208.261. Ratios of unlabeled to labeled antibody used in the assay are indicated on the x-axis.
# Supernatants from bulk culture hybridomas were screened for immunoreactivity against EphA2 (Table 9, column 4) using standard molecular biological techniques (e.g., ELISA immunoassay). Supernatants were further screened for the ability to inhibit an EphA2 monoclonal antibody (EA2; ATCC deposit no. PTA-4380; see co-pending U.S. patent application Ser. No. 10/436,783, entitled “EphA2 Agonistic Monoclonal Antibodies and Methods of Use Thereof” filed May 12, 2003) from binding to EphA2. […] Additionally, many of the other antibodies could inhibit EA2 binding to EphA2 as well (Table 9, column 3).
# [4] = target: EphA2 (Homo sapiens, UniProt P29317); assay: EphA2 expression in MCF-7^EphA2 cells after EA2 treatment (Western blot); assay type: cell-based
# Protocol: MCF-7^EPhA2 cells were incubated in the presence of 3 μg/ml of EA2 for the time indicated prior to sample extraction and Western blot analyses with an EphA2-specific antibody (D7).
# Estrogen-sensitive breast cancer cells, MCF-7 cells, were transfected with and stably overexpressed human EphA2 (MCF-7^EphA2) (pNeoMSV-EphA2 provided by Dr. T. Hunter, Scripps Institute). Western blot analyses confirmed the ectopic overexpression of EphA2 in transfected cells relative to matched controls (data not shown).
# as §1
# [5] = target: T2, EphA2-Ephrin A1-Fc-EA2 complex (Homo sapiens, UniProt P29317); assay: Displacement of biotinylated EA2 from EphA2-Ephrin A1-Fc complex by unlabeled competitor; assay type: binding; settings: biotinylated EA2 10 μg/ml; FIG. 18B
# T2 construct: consisting of the extracellular domain of EphA2 linked to human IgG1 constant region (EphA2-Fc)
# Protocol: (A) EphA2-Fc was incubated with and bound to immobilized Ephrin A1-Fc. Labeled Ephrin A1-Fc (black), EA2 (white) or Eph099B-233.152 (grey) was incubated with the EphA2-Ephrin A1-Fc complex and amount of binding was measured. (B) EphA2-Fc was incubated with and bound to immobilized Ephrin A1-Fc. Labeled EA2 was then incubated with the EphA2-Ephrin A1 complex. Unlabeled competitor was incubated with EphA2-Ephrin A1-EA2 complex in the indicated amount. Competitors were Ephrin A1-Fc (black), EA2 (white) or Eph099B-233.152 (grey).
# The EphA2-Ephrin A1-Fc complex was prepared as described above. Biotinylated EA2 (10 μg/ml) was then incubated with the complex for 30 min. Unlabeled competitor was incubated with EphA2-Ephrin A1-Fc-EA2 complex in the indicated amount. Unlabeled EA2 could displace the labeled EA2 at concentrations of 100 ng/ml or greater.
# EphA2, sequence (P29317 24-976): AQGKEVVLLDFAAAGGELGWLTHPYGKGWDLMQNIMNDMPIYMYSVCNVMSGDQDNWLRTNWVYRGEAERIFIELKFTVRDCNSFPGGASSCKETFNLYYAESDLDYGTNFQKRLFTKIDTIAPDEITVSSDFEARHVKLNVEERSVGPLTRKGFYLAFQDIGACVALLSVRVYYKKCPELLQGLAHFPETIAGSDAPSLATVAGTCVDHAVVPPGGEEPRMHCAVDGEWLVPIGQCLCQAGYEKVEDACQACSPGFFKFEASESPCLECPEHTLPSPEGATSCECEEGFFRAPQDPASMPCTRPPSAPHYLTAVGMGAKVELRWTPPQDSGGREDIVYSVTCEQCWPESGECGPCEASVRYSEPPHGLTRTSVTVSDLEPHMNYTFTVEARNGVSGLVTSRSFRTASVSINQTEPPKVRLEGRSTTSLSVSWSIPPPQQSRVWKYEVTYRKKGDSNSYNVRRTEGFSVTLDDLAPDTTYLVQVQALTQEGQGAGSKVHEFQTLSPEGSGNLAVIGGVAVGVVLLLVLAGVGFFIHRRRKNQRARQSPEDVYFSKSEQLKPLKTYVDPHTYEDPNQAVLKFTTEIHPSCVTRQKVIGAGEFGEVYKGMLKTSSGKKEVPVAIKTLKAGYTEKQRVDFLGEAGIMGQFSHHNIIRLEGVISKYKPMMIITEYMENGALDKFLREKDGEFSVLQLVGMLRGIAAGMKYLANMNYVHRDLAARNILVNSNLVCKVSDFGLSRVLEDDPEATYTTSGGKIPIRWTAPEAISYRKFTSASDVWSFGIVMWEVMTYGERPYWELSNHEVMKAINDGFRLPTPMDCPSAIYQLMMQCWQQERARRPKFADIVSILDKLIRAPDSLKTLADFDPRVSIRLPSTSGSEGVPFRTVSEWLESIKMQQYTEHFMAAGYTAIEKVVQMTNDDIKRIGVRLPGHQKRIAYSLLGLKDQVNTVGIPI
# T1 sequence (P29317 24-537 limits assumed): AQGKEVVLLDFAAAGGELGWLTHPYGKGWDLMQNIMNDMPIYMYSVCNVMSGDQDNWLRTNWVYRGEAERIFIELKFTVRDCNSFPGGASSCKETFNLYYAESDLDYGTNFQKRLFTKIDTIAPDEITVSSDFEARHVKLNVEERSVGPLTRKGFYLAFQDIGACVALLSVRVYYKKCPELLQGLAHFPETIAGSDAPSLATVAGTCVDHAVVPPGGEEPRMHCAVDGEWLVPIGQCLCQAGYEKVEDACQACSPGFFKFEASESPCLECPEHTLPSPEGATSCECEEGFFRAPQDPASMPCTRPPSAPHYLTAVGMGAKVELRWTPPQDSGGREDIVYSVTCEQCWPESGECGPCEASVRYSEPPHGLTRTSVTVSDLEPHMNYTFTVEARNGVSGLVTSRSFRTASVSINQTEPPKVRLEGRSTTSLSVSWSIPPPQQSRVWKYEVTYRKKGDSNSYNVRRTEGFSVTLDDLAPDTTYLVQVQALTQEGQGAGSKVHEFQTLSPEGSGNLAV
# T2 sequence (P29317 24-537 limits assumed): as above
# T2 sequence (P20827 19-182 partner limits assumed): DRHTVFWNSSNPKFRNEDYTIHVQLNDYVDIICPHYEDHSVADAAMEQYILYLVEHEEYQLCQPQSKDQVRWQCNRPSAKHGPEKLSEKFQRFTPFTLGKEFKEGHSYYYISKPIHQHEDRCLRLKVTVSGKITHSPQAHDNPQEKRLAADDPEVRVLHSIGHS
molecule,measurement,setting,value
B1,"Tumor growth, MDA-MB-231 implanted orthotopically",[1],inhibited
same,"Soft agar colonization response / tamoxifen sensitivity, MCF-7^EphA2 cells","[2]; 1 μM 17β-estradiol, FIGS. 11A, 13C (11A also MCF-7)",restored a phenotype that was comparable to control MCF-7 cells; also recorded: decreases malignant growth; also recorded: increased the sensitivity of MCF-7^EphA2 cells to tamoxifen
same,"Inhibition / decrease of soft agar colonization, MCF-7^EphA2 cells",[2]; 14 days,19%
same,Competition with labeled EA2 for binding to EphA2-Fc,[3],could decrease the amount of labeled EA2 binding to EphA2-Fc
same,Time EphA2 remained undetectable after EA2 treatment,[4]; 3 μg/ml EA2,≥ 24 h
same,EphA2 activation and expression level after EA2 treatment,"[4]; 3 μg/ml EA2, FIG. 13A",induced EphA2 activation and subsequent degradation; also recorded: Decreased levels of EphA2 expression were observed within two hours
same,Concentration of unlabeled competitor displacing labeled EA2,[5],≥ 100 ng/mL
